Data: article PMC7954794, “Protein context shapes the specificity of SH3 domain-mediated interactions in vivo” (Nature Communications, 2021)

System: PPIs identified as affected by the SH3 domain deletions
Assay: Liquid DHFR-PCA low-throughput validation of PPIs affected by SH3 deletion (Fig. S1D-E)
Assay type: cell-based, Saccharomyces cerevisiae
Settings: label = prey, liquid DHFR-PCA, prey _1 = lost, _2 = gained in screen
Procedure, shortened: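 Yeast diploids from DHFR-PCA mating grown 48 h in synthetic complete MSG medium pH 6.0 with NAT and HPH, normalized to 1 OD and diluted to 0.1 OD in liquid PCA selection medium. Growth followed by OD every 15 min for 72 h at 30 °C.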

B1: YMR109W_1 (protein, UniProt Q04439 1-1219, looked up)
Myosin-5: MAILKRGARKKVHQEPAKRSANIKKATFDSSKKKEVGVSDLTLLSKISDEAINENLKKRFLNATIYTYIGHVLISVNPFRDLGIYTDAVMNEYKGKNRLEVPPHVFAIAESMYYNMKSYNENQCVIISGESGAGKTEAAKRIMQYIAAASSTHTESIGKIKDMVLATNPLLESFGCAKTLRNNNSSRHGKYLEIKFNNQFEPCAGNITNYLLEKQRVVSQIKNERNFHIFYQFTKGASDAYRQTFGVQKPEQYVYTAAAGCISAETIDDLQDYQETLKAMRVIGLGQEEQDQIFRMLAAILWIGNVSFIENEEGNAQVRDTSVTDFVAYLLQIDSQLLIKSLVERIMETNHGMKRGSVYHVPLNIVQADAVRDALAKAIYNNLFDWIVSRVNKSLQAFPGAEKSIGILDIYGFEIFEHNSFEQICINYVNEKLQQIFIQLTLKSEQETYEREKIQWTPIKYFDNKVVCDLIEARRPPGIFAAMNDSVATAHADSNAADQAFAQRLNLFTTNPHFDLRSNKFVIKHYAGDVTYDIDGITDKNKDQLQKDLVELIGTTTNTFLATIFPDTVDRESKRRPPTAGDKIIKSANDLVETLSKAQPSYIRTIKPNETKSPNDYDDRQVLHQIKYLGLQENVRIRRAGFAYRQVFEKFVERFYLLSPHCSYAGDYTWQGDTLDAVKYILQDSSIPQQEYQLGVTSVFIKTPETLFALEHMRDRYWHNMAARIQRAWRRFLQRRIDAATKIQRTIRERKEGNKYEKLRDYGTKVLGGRKERRSMSLLGYRAFMGDYLSCNESKSKGAYIKRQVSIKEKVIFSIHGEALHTKFGRSAQRLKKTFLLTPTTLYIVGQTLVQNAMTYTQDYKIDVRNIQAVSLTNLQDDWVAIKLASSGQPDPLINTYFKTELITHLKRLNDKIQIKIGSAIEYQKKPGKLHSVKCQINESAPKYGDIYKSSTISVRRGNPPNSQVHKKPRKKSSISSGYHASSSQATRRPVSIAAAQHVPTAPASRHSKKPAPPPPGMQNKAATRRSVPNPASTLTASQSNARPSPPTAATRATPAATPAAAAMGSGRQANIPPPPPPPPPSSKPKEPMFEAAYDFPGSGSPSELPLKKGDVIYITREEPSGWSLGKLLDGSKEGWVPTAYMKPHSGNNNIPTPPQNRDVPKPVLNSVQHDNTSANVIPAAAQASLGDGLANALAARANKMRLESDDEEANEDEEEDDW
Bait BEM1-1
  Ratio (Deletedscore / WTscore): 0.9175
Bait BEM1-2
  Ratio (Deletedscore / WTscore): 0.7054
Bait BOI2
  Ratio (Deletedscore / WTscore): 0.9032
Bait HSE1
  Ratio (Deletedscore / WTscore): 0.9954
Bait NBP2
  Ratio (Deletedscore / WTscore): 0.9518
Bait PIN3
  Ratio (Deletedscore / WTscore): 0.6702

B2: YHR064C_1 (protein, UniProt P38788 1-538, looked up)
Ribosome-associated complex …: MSSPVIGITFGNTSSSIAYINPKNDVDVIANPDGERAIPSALSYVGEDEYHGGQALQQLIRNPKNTIINFRDFIGLPFDKCDVSKCANGAPAVEVDGKVGFVISRGEGKEEKLTVDEVVSRHLNRLKLAAEDYIGSAVKEAVLTVPTNFSEEQKTALKASAAKIGLQIVQFINEPSAALLAHAEQFPFEKDVNVVVADFGGIRSDAAVIAVRNGIFTILATAHDLSLGGDNLDTELVEYFASEFQKKYQANPRKNARSLAKLKANSSITKKTLSNATSATISIDSLADGFDYHASINRMRYELVANKVFAQFSSFVDSVIAKAELDPLDIDAVLLTGGVSFTPKLTTNLEYTLPESVEILGPQNKNASNNPNELAASGAALQARLISDYDADELAEALQPVIVNTPHLKKPIGLIGAKGEFHPVLLAETSFPVQKKLTLKQAKGDFLIGVYEGDHHIEEKTLEPIPKEENAEEDDESEWSDDEPEVVREKLYTLGTKLMELGIKNANGVEIIFNINKDGALRVTARDLKTGNAVKGEL
Bait BEM1-1
  Ratio (Deletedscore / WTscore): 0.9929
Bait BUD14
  Ratio (Deletedscore / WTscore): 0.7471

B3: YJL151C_2 (protein, UniProt P14359 1-133, looked up)
Protein SNA3: MDRDHINDHDHRMSYSINKDDLLLMVLAVFIPPVAVWKRKGMFNRDTLLNLLLFLLLFFPAIIHACYVVYETSSERSYDLSRRHATAPAVDRDLEAHPAEESQAQPPAYDEDDEAGADVPLMDNKQQLSSGRT
Bait ABP1
  Ratio (Deletedscore / WTscore): 1.204
Bait BZZ1-2
  Ratio (Deletedscore / WTscore): 1.485

B4: YCR002C_1 (protein, UniProt P25342 1-322, looked up)
Cell division control protein …: MDPLSSVQPASYVGFDTITNQIEHRLLKKGFQFNIMVVGQSGLGKSTLINTLFASHLIDSATGDDISALPVTKTTEMKISTHTLVEDRVRLNINVIDTPGFGDFIDNSKAWEPIVKYIKEQHSQYLRKELTAQRERFITDTRVHAILYFLQPNGKELSRLDVEALKRLTEIANVIPVIGKSDTLTLDERTEFRELIQNEFEKYNFKIYPYDSEELTDEELELNRSVRSIIPFAVVGSENEIEINGETFRGRKTRWSAINVEDINQCDFVYLREFLIRTHLQDLIETTSYIHYEGFRARQLIALKENANSRSSAHMSSNAIQR
Bait BEM1-2
  Ratio (Deletedscore / WTscore): 0.5157
Bait BOI1
  Ratio (Deletedscore / WTscore): 0.9522
Bait NBP2
  Ratio (Deletedscore / WTscore): 0.7856
Bait RVS167
  Ratio (Deletedscore / WTscore): 0.8283

B5: YKL051W_1 (protein, UniProt P35735 1-353, looked up)
Protein SFK1: MIQFKSPGNWLFIVPWIAFIPWYGMLIAMLICWASQGHPIYWFMHSEQFPVYISDIGATNLRPLFISCAGWQGLGYVITVALEFFQRSGYLPFQLKKKDPSISDSTSYAEKLHSGKYLMPPYYTKDERNLIFAAFVLGSIGELALLFSSIFSTALYHRVHIAMVSVFVVFMFLSTCCLIAEYFLMGRHYASVHPLASPHFNPQSSEKSFNQDYNTVDELPWYKWKGHVWNKFTISATLKVIWLTLAVVWAICFGAINDRSKSACFEWLLAFWFGIIFMILSADFYLGGRYRQSRYFNHVESFSGYYKYDKALGLYHSEDVLPSDDNAGVIATETASSNIYNNSSSNESIQVVV
Bait BEM1-1
  Ratio (Deletedscore / WTscore): 1.076
Bait BEM1-2
  Ratio (Deletedscore / WTscore): 0.4799
Bait MYO3
  Ratio (Deletedscore / WTscore): 0.5607
Bait MYO5
  Ratio (Deletedscore / WTscore): 0.761

B6: YDR166C_1 (protein, UniProt P89102 1-971, looked up)
Exocyst complex component SEC5: MDRFQIGDEQLLRFYQLKTINPTHSWAQDSSKLNNEEATSNELGVETSFDILKDFKYGNQISIDKESRAYLNDESLSYIRDPLNGQEMSKELQHLPNDSMRLNYLVNSKQFNVKAFLRDMHKQDSFNDLNNSLDRLDSDIQDQSIHLKQLVGKNFTKYVKIKNKLDQIYKEFDEKTNEKNQCDSPKENQINVESLNKKVDEVIRTTTFKLKPLMDNYQKILNYQATKKFIELNKFYFNLPKSLKRCLTNNDFNEFIIEYSKGLTLRRRFNQSSDASQSLVIKRIWTQIENLLVTYKDLIWNSLINSNFNIDQPQETILSLFSKLLNLENFINNNQRESESGNKNTTSSSNENPILRWMSIKMNGFQNELNELSGHMISKIIHSQRLILQNNTNQDKSQGCVELSYYLKINQLFQIISDTGKDSEGLKSTVEPNKVNTISGTSYLNLNCQPSSQGLTDSPTIIEMWLLILKYINDLWKICDQFIEFWEHIEKFLDGTYQNSIINEKRKENILIGDSNIIESYQKSLILKEEQINEVRLKGEEFITSVSQNLISFFTSSQSSLPSSLKDSTGDITRSNKDSGSPLDYGFIPPNCNGLSCLRYLPKIVEPILKFSTELAQLNITTNGITICRNTLSTIINRCVGAISSTKLRDISNFYQLENWQVYETVTFSSKSQDSSKNLTFEYGVTQFPEIVTSFQEVSIKTTRDLLFAYEKLPIINGISVVSYPSKQLLTGIEIQQIISMEAVLEAILKNAAKDKDNPRNSHTILTLTNLQYFRECAFPNILQYFDDAFEWNLASKNLELFSLLSKMESSIFGNYLSDLKINLRDTLEEKFHEINWPMYTSNSFRVGDYIIEALMILIVVHSECFRIGPQLIHKILIETQIFIARYLFEAFKPYVGNLSNDGSLQIIVDLEFFQKVMGPLLEKDTEATLRACLQNCFQNDTNRLQKCINEINPIVSANLKRTAIQFAAFS
Bait BEM1-2
  Ratio (Deletedscore / WTscore): 0.5345
Bait BOI2
  Ratio (Deletedscore / WTscore): 0.7084

B7: YER114C_1 (protein, UniProt P39969 1-1040, looked up)
BEM1-interacting protein 2: MSNDREVPTLSQLNTTVSRDKDVSDTLSPDFDSKGSATGRDGGNFPMYIAINEYFKRMEDELDMKPGDKIKVITDDEEYKDGWYFGRNLRTNEEGLYPVVFTQKITVEKAPTLMRAKSTKRIYSPLTNEDPLLSSTFISENDSNSELPTPQPIETAASISRTANGKIERNLSLKNTMSDIDNALLEFKDDSIGPPDRFINSGRDEEHSITHETILSATDGLDVVESNSKPTTSSSTGFLNGDLENQATLINGIDTTKLNPVEAEFWSPEEITAYFIMEGYDVQSASRFQKHKISGKILLELELVHLKELDINSFGTRFEIFKEIEKIKEAIRTNGRSLNRASKTNNANIYNQLMPPANVDQRASYRGHVRKTSQSLEDLPSQQNFIPTPRNTRNSSASKHRPKSLVFDSQEANANIAPDVQIPQVVEEMAGNENLFVSPRRAPKPPSYPSPAQPPKSPLLNNTRTSPSPAQLYSWQSPTLSFSGPKRTSYIDQYSSSDSNFNSRSALPKNNQGGGKALSPIPSPTRNSVRNEDSEGKLTSSSKRNSVPYYGYAPESSSDRKSSCSSHEEEQFQETMNTFERPTSSIYADGSTIASISNDKLAHEKEGKKKPTRHSSSLSSKSKSDSRRNSSLKRSSSASRTSSFKKSSFMLSPFRQQFTDNAARSSSPEENPITSMPSEKNSSPIVDKKSSKKSRSKRRSVSAKEAEIFTETVKDDKNKRSASEAIKGETLKGKSLRQMTARPVAKKKQTSAFIEGLRSISVKEAMKDADFSGWMSKKGSGAMSTWKTRFFTLHGTRLSYFSSTTDTRERGLIDITAHRVVPAKEDDKLVSLYAASTGKGRYCFKLLPPQPGSKKGLTFTQPRTHYFAVDNKEEMRGWMAALIKTTIDIDTSVPIISSYTTPTVSLSKAQEMLAEAREETKLREQQMLENEEDEDQFLWDQQQLQQQQHDNNQGQADRTISASTQRTSDEDNTISTPNLSSANNTTIGSNGFSSPFLLASGLLSPGVARNSSMRGTEKKGKFSTEEDYFGDNSKHKTDKI
Bait BEM1-2
  Ratio (Deletedscore / WTscore): 0.3794
